Literature values, collected in US10663473B2, “Method of identifying a status of a mucosal intestinal epithelial barrier to improve treatment of inflammatory bowel disease” (Maximus Diagnostic Technologies LLC, priority 2016, dated 2020).

Tested on: IBD patients
Conditions: all CD patients

B1: certolizumab pegol: anti-TNF agent, trade name Cimzia, sold by UCB S.A. (antibody, chains of the INN, looked up, V domains shown)
VH: EVQLVESGGGLVQPGGSLRLSCAASGYVFTDYGMNWVRQAPGKGLEWMGWINTYIGEPIYADSVKGRFTFSLDTSKSTAYLQMNSLRAEDTAVYYCARGYRSYAMDYWGQGTLVTVSS
VL: DIQMTQSPSSLSASVGDRVTITCKASQNVGTNVAWYQQKPGKAPKALIYSASFLYSGVPYRFSGSGSGTDFTLTISSLQPEDFATYYCQQYNIYPLTFGQGTKVEIK
modifications: Fab' PEG
In the case of B1, the “long-term clinical response rate” value is listed as 50%.
